Data on 18 sequences can be found in patent US11065317B2, “Heat shock protein-binding peptide compositions and methods of use thereof” (Agenus Inc., priority 2018, dated 2021).

The test concerns the target T1, human Hsc70 (Homo sapiens, UniProt P11142).
T1 construct: made in house; host or cells: E. coli
In words: Percent complexation of peptides with Hsc70 by size exclusion chromatography. It counts as binding. The settings on record: 60 minutes at 30° C., SEC, 214 nm; for Percent complexation of peptides with Hsc70, 0.25:1: peptide:Hsc70 molar ratio 0.25:1; for Percent complexation of peptides with Hsc70, 0.5:1: peptide:Hsc70 molar ratio 0.5:1; for Percent complexation of peptides with Hsc70, 1:1: peptide:Hsc70 molar ratio 1:1; for Percent complexation of peptides with Hsc70, 2:1: peptide:Hsc70 molar ratio 2:1; for Percent complexation of peptides with Hsc70, 4:1: peptide:Hsc70 molar ratio 4:1. As for the experimental part:
In a separate experiment, further variants of the peptide NLLRLTG (SEQ ID NO: 70) were generated and the ability of these peptides to form a peptide-Hsc70 complex was analyzed. Peptides were again synthesized using standard Fmoc solid-phase chemical synthesis, as described above. Individual peptides were solubilized in pH adjusted water at a concentration of 250 μM, and spiked with polysorbate 20 to a final concentration of 0.1%. To form a peptide-Hsc70 complex, Hsc70 (1 mg/ml, 0.1% polysorbate) was mixed with peptide at peptide:Hsc70 molar ratios of, 0.25:1, 0.5:1, 1:1, 2:1, and 4:1, for 60 minutes at 30° C. Following incubation, samples were cooled for 5 minutes at room temperature and transferred to HPLC vials for analysis. To evaluate the quantity of the complex in the solution, 20 μl (10 μg) of the sample was loaded on a size exclusion chromatography column TSKgel SuperSW3000 (Tosoh Bioscience) at a flow rate of 0.2 ml/min with 1×PBS as a running buffer. The data was collected by measuring the absorbance at 214 nm.
The percent of Hsc70 bound to peptide was calculated by SEC. As shown in the SEC chromatogram depicted in FIG. 1, recombinant human heat shock cognate 71 kDa protein (Hsc70) appeared as monomer (M), dimer (D), trimer (T), and higher order high molecular weight (HMW) oligomeric species when subjected to SEC chromatography. Resolution and evaluation of the extent to which peptide-Hsc70 complex was formed with a given peptide or peptide mixture was complicated by the close elution of a complex of Hsc70 monomer with peptide (Msh). The peaks corresponding to monomer and complex overlap and were not fully resolved by conventional SEC media. In order to more accurately calculate the extent of complex formation, the following data analytical method was used. […] Peak area integrations of these protein species were well resolved from the complex and monomer. Further, the extent to which complex was formed appeared to be […] to the extent to which trimer and dimer were recruited to complex formation. Because of this observation, changes in trimer and dimer reflected the extent to which monomer was recruited to the formation of complex. Thus, the progression of changes in the level of trimer and dimer was used to calculate expected changes in the peak areas of overlapping complex and monomer species, and these calculated peak areas were used to calculate net formation of complex.
Terms used for various chromatographic fractions include: High Molecular Weight (HMW), Trimer and other mid-order oligomer (T), Dimer (D), Complex (C), Monomer shoulder (Msh), and Monomer (M) (see FIG. 1). Peak areas of the various fractions were extracted from SEC data and the percentage of peptide-Hsc70 complex formation was calculated using the following set of equations: % Complex=(AREAcomplex/AREATotal)×100 AREAcomplex=AREATotal−(AreaT+D+AreaMshx+AreaMx) AREATotal=AREAT+D,C,Msh,M+(AREAHDw-x−AREAHDW-0) AREAMshx=AREAMsh0×(AREA(T+D)x)/(AREA(T+D)0) AREAMx=AREAM0×(AREA(T+D)x)/(AREA(T+D)0)
AREATotal is the sum of total integrated peak areas from trimer/oligomer region through the monomer peak and excludes the initial HMW peak area but includes the excess increase of the HMW peak area that was observed when peptide was added. The HMW peak was excluded from the complexation calculation on the basis that it was aggregated protein that was not functional for complexation. This correction took into account AreaTotal factors in the minor increase in HMW area, adding it back to base total area used to calculate area of complex.
The foregoing method was applied to the SEC chromatogram for each complexation reaction by applying vertical lines to the chromatogram to produce HMW, T, C, D, and M segments (as shown in FIG. 1), calculating the area under the curve for of each of the indicated HMW, T, C, D, and M segments, and inputting the values into the equations described above.
(In gel filtration, larger molecules generally elute earlier.)

T1 sequence (P11142 whole entry): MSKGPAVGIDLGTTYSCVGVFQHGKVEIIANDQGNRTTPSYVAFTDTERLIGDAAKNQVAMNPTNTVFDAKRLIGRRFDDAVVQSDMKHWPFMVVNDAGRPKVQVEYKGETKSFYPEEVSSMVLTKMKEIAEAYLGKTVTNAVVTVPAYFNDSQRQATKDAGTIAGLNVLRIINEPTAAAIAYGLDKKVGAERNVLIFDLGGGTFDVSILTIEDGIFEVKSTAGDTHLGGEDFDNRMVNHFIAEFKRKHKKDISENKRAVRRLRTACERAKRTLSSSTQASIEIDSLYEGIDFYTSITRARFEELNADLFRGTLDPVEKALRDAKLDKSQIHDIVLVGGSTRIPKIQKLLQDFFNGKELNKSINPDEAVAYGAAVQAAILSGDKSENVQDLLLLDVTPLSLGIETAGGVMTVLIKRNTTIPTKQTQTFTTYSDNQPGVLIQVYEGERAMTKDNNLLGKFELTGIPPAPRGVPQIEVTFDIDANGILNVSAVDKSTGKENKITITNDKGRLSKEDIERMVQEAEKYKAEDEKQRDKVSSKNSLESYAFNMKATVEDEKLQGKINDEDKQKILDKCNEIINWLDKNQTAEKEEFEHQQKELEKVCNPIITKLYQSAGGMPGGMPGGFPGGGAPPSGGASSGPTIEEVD

With FFRKNWLKLKW [PEP055], the “Percent complexation of peptides with Hsc70, 0.25:1” value (from here on “Percent complexation … 0.25:1”) was found to be 24.1%; the “Percent complexation of peptides with Hsc70, 0.5:1” value (“Percent complexation … 0.5:1” for short) is given as 52.2%; the “Percent complexation of peptides with Hsc70, 1:1” value (“Percent complexation … 1:1” below) worked out at 75.9%; the “Percent complexation of peptides with Hsc70, 2:1” value (“Percent complexation … 2:1” for short) was 83.7%. The “Percent complexation of peptides with Hsc70, 4:1” value (from here on “Percent complexation … 4:1”) came out at 86.3%.
For the sequence FFRKNLLRLTW [PEP155], the “Percent complexation … 0.25:1” value was 22.5%; the “Percent complexation … 0.5:1” value is 48.1%; the “Percent complexation … 1:1” value is reported as 75.6%; the “Percent complexation … 2:1” value is recorded as 82.9%. In addition, the “Percent complexation … 4:1” value stood at 86.6%.
Taken in the same sequence, the figures for FFRKNWLLLTW [PEP003] were 26.8%, 45.6%, 67.2%, 81.3% and 87.6%.
The corresponding values for FFRKNRLLLTG [PEP002] are 19.2%, 32.0%, 48.7%, 64.8% and 78.8%.
Take FFRKNLLRWTG [PEP004]: the “Percent complexation … 0.25:1” value came to 15.4%; the “Percent complexation … 0.5:1” value was found to be 29.0%; the “Percent complexation … 1:1” value was determined as 46.8%; the “Percent complexation … 2:1” value is on record as 62.5%. For the same sequence, the “Percent complexation … 4:1” value was 75.3%.
In the case of FFRKNWLKLTW [PEP012], the “Percent complexation … 0.25:1” value came to 29.9%; the “Percent complexation … 0.5:1” value came to 58.2%; the “Percent complexation … 1:1” value is reported as 79.2%; the “Percent complexation … 2:1” value was 86.2%. The “Percent complexation … 4:1” value came out at 89.5%.
Regarding FFRKFWLRLTW [PEP008], the “Percent complexation … 0.25:1” value was found to be 24.4%; the “Percent complexation … 0.5:1” value is 38.3%; the “Percent complexation … 1:1” value turned out to be 61.8%; the “Percent complexation … 2:1” value is 79.1%. In addition, the “Percent complexation … 4:1” value worked out at 81.6%.
In the case of FRNWLRLTW [PEP028], the “Percent complexation … 0.25:1” value amounted to 24.0%; the “Percent complexation … 0.5:1” value was determined as 46.4%; the “Percent complexation … 1:1” value is 75.6%; the “Percent complexation … 2:1” value is on record as 84.1%. In addition, the “Percent complexation … 4:1” value amounted to 87.5%.
In the case of FFRKNWLKLWK [PEP058], the “Percent complexation … 0.25:1” value came out at 22.7%; the “Percent complexation … 0.5:1” value was 43.5%; the “Percent complexation … 1:1” value is on record as 66.5%; the “Percent complexation … 2:1” value was 78.8%. In addition, the “Percent complexation … 4:1” value was determined as 83.9%.
As for FFRKNWLRLFW [PEP010], the “Percent complexation … 0.25:1” value amounted to 19.1%; the “Percent complexation … 0.5:1” value turned out to be 42.2%; the “Percent complexation … 1:1” value was 64.9%; the “Percent complexation … 2:1” value stood at 79.3%. Besides, the “Percent complexation … 4:1” value amounted to 86.5%.
Taken in the same sequence, the figures for FFRKNRLWLTG [PEP005] were 16.0%, 32.7%, 54.8%, 67.6% and 77.6%.
Consider FFRKNWLKLRW [PEP057], for which the “Percent complexation … 0.25:1” value stood at 24.9%; the “Percent complexation … 0.5:1” value is on record as 50.0%; the “Percent complexation … 1:1” value amounted to 72.2%; the “Percent complexation … 2:1” value is listed as 82.8%. Further, the “Percent complexation … 4:1” value is reported as 88.3%.
The corresponding values for FFRKNFLRLTF [PEP027] are 19.1%, 49.0%, 77.0%, 85.6% and 90.0%.
As for FFRKNWLRLKW [PEP011], the “Percent complexation … 0.25:1” value came to 31.2%; the “Percent complexation … 0.5:1” value is reported as 58.2%; the “Percent complexation … 1:1” value worked out at 81.6%; the “Percent complexation … 2:1” value is 87.8%. The “Percent complexation … 4:1” value is reported as 90.4%.
Take FFRKQWLRLTW [PEP014]: the “Percent complexation … 0.25:1” value was found to be 29.3%; the “Percent complexation … 0.5:1” value stood at 54.4%; the “Percent complexation … 1:1” value is given as 80.9%; the “Percent complexation … 2:1” value turned out to be 88.1%. In addition, the “Percent complexation … 4:1” value was 90.3%.
As to FFRKNWLRLLW [PEP009], the “Percent complexation … 0.25:1” value turned out to be 32.8%; the “Percent complexation … 0.5:1” value is given as 63.5%; the “Percent complexation … 1:1” value was found to be 81.0%; the “Percent complexation … 2:1” value is recorded as 85.3%. Also, the “Percent complexation … 4:1” value is 89.0%.
As to FFRKNWIRITW [PEP013], the “Percent complexation … 0.25:1” value is listed as 25.6%; the “Percent complexation … 0.5:1” value is recorded as 48.3%; the “Percent complexation … 1:1” value was 69.6%; the “Percent complexation … 2:1” value turned out to be 81.9%. The “Percent complexation … 4:1” value amounted to 87.7%.
Turning to “FFRKNLLRLTG [PEP001, reference compound]”, the “Percent complexation … 0.25:1” value is 23.4%; the “Percent complexation … 0.5:1” value worked out at 44.7%; the “Percent complexation … 1:1” value stood at 68.1%; the “Percent complexation … 2:1” value was 82.5%. Moreover, the “Percent complexation … 4:1” value is listed as 90.1%.
